Bridge positions count the residues as written; N and C are the ends. Ends that are not written are not given here. R1 = not defined here
Key:
human α4β7 integrin [1] = molecular target: T1, human α4β7 integrin (human, UniProt P13612 34-1032; P26010 20-798); assay: inhibition of RPMI 8866 cell adhesion to huMAdCAM-1-Ig
T1 construct: whole, on cells; assays run with Mn++; also called α4β7 on HUT 78 cells; α4β7 on RPMI 8866 cells

human α4β7 integrin [2] = molecular target: T1, human α4β7 integrin; assay: inhibition of HUT 78 cell adhesion to murine MAdCAM-1/mCk
Experimental: The assay was performed in a 96-well format. Plates were coated overnight at 4° C. with 53 μl/well of a 5 μg/mL solution of rat anti-mCk in carbonate buffer. The plates were blocked for 1 hour at 37° C. with 100 μL/well of 1% BSA in PBS. The BSA/PBS solution was removed, and 50 μL of MAdCAM-mCk supernatant was added neat to each well. The assay was conducted under conditions in which capture antibody was the limiting reagent.
Cell adhesion was measured in the presence or absence of compounds. The compounds were resuspended in 100% DMSO, subsequently diluted 1:10 in water, and finally diluted again 1:10 in the assay: 50 μL of 2X Assay Bufler, 30 μL water, 20 μL of compound were added to each well.
Over this range, Four different concentrations were tested in duplicate.

B1: R1-Leu-Asp-Thr-Ser-Leu, L# 1276 (Table 4) (peptide)
peptide: R1-LDTSL
modifications: reading uncertain; also: printed as R1-Leu-Asp-Thr-Ser-Leu
notes: not tied
Question: Which IC50 (human α4β7 integrin [1]) does the source give for B1 here?
Answer: 2.7 µM

B2: Ac-Cys*-Gly-Leu-Asp-Thr-Ser-Leu-Gly-Cys* (peptide)
peptide: Ac-CGLDTSLGC
modifications: disulfide 1-9; not fully specified (C-terminus); printed as Ac-Cys*-Gly-Leu-Asp-Thr-Ser-Leu-Gly-Cys*
notes: also called Ex No 5; 00145-1B
Question: For B2, which IC50 (human α4β7 integrin [2]) is on record?
Answer: 266 µM
